According to patent US9074002B2, “PTP1B inhibitors” (Cold Spring Harbor Laboratory, priority 2009, dated 2015):

Test system: endogenous PTP1B in Cos1 cells
Experiment: Colocalization of intrabody45 and PTP1B in Cos1 cells by immunofluorescence
Assay type: cell-based
Conditions: FIG. 14
Protocol: In order to verify the interaction between PTP1B-OX and scFv45 in mammalian cells, Applicant determined whether PTP and scFv45 colocalized after insulin stimulation, using immunofluorescence. Cos1 cells were grown on cover slips and transfected with scFv45 using Fugene6 as the transfection reagent according to manufacturer's instructions. The cells were serum starved 24 hours post transfection, for 16 hours at 37° C. and then stimulated with 25 nM insulin (in growth medium without serum) or left untreated. Following insulin treatment the cells were washed 2× with PBS and fixed with 5% formalin (in PBS) for 15 minutes at room temperature. The cells were washed with PBS three times at room temperature. The fixed cells were permeabilized with 0.5% Triton-X100 (in PBS) for 5 minutes at room temperature. Cells were rinsed with Wash Buffer [PBS, pH 7.4 with 0.1% BSA, 0.2% TritonX-100, 0.05% Tween-20 and 0.05% sodium azide] at room temperature. […] To quantify colocalization of PTP1B and intrabody45 from the merged images, 15 individual images were analyzed by Zeiss (LSM 710) Colocalization Viewer Software. The degree of colocalization of PTP1B and intrabody45 in each cell was expressed as colocalization coefficients that measure relative number of colocalizing pixels for the respective fluorophores for PTP1B and intrabody45, as compared to the total number of pixels. […]

B1: scFv45: conformation-sensor scFv binding PTP1B-OX, SEQ ID NO: 26 and 78; expressed as intrabody (protein)
scFv: MKKTAIAIAVALAGFATVAQAALTQPSSVSANPGGTVKITCSGSSSAYGYGWYQQKSPGSAPVTVIYNNNKRPSNIPSRFSGSKSGSTGTLTITGVQAEDEAVYFCGSEDSSTDAIFGAGTTLTVLGQSSRSSTVTLDESGGGLQAPGGALSLVCKASGFTFSSYDMGWIRQAPGKGLEYVAGITDNGRYASYGSAVDGRATISRDNGQSSVRLQLNNLRAEDTGTYYCARDDGSGWTGNSIDAWGHGTEVIVSSTSGQAGQHHHHHHGAYPYDVPDYAS
colocalization between PTP1B and intrabody (Cos1 cells without insulin stimulation): not significant
colocalization between PTP1B and intrabody (Cos1 cells, stimulated with 25 nM insulin): Strong colocalization
